The values below come from article PMC4220643, “Localization of the CyanoP binding site on photosystem II by surface plasmon resonance spectroscopy” (Frontiers in Plant Science, 2014).

B7: CyanoP (natural protein, Thermosynechococcus elongatus, UniProt Q8DH84 20-183, looked up)
chain: CSATSGLQAYVDSYDGYEFLYPRGWVQVQVEDPVDVVFHDIIETTENVSVVVNTVASTKSLEELGSPEEVGDRLLRNIIAPSESGRSSALIAATSQKADDKTYYILEYAVTLPGDGNTAQQRHNLSSIAVSRGKVYTLSVSAPEERWPKVEDQFKTIVSSFTVY
notes: CyanoP of Thermosynechococcus elongatus, without signal peptide; Expression vector derived from pIVEX2.4d; tags and purification are told only in the supplementary material; also called recombinant CyanoP; cyanobacterial homolog of higher plant PsbP; source: E. coli Overexpress C43, purified

Holding throughout (details): both partners purified
The target in the test “CyanoP” is B7. Kind of test: SPR; Biacore3000, CM5 chip with covalently bound DNase E7; Im7-tagged luminal PSII domain captured from the cell-free reaction mixture (on-chip purification); reference surface with Im7, both surfaces saturated with purified Im7; soluble protein injected as analyte in triplicate; steady state responses fitted to a one site binding isotherm. (Surface plasmon resonance follows binding to a sensor surface in real time, without labels.)

In the next test the target is T1, PsbO (Thermosynechococcus elongatus, UniProt P0A431 27-272).
T1 construct: PsbO of Thermosynechococcus elongatus, without signal peptide; Expression vector derived from pIVEX2.4d; tags and purification are told only in the supplementary material; also called extrinsic PSII subunit PsbO; source: E. coli Overexpress C43, purified
T1 sequence (looked up): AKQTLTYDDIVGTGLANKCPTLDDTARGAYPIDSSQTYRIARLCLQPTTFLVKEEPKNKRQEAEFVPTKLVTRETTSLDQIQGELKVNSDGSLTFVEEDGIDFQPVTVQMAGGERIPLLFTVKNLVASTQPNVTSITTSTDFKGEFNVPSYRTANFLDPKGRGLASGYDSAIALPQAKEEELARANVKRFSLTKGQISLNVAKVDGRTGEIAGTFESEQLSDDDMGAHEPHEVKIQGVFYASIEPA
Described as above.

For test [1], the target named is T2, PsbV (Thermosynechococcus elongatus, UniProt P0A386 27-163).
T2 construct: PsbV of Thermosynechococcus elongatus, without signal peptide; details of expression and purification are in the supplementary material; also called extrinsic PSII subunit PsbV; source: expressed after a published protocol (Andrews et al., 2005), purified as strep-tagged protein
T2 sequence (looked up): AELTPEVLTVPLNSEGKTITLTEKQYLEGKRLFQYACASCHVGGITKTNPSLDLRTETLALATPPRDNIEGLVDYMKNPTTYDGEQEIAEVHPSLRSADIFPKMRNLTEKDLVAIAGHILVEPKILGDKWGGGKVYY
The test is described as above.

For test [2], the target named is T3, Im7-CP47 (e-loop of CP47 fused to Im7) (Thermosynechococcus elongatus, UniProt Q8DIQ1 255-450).
T3 construct: luminal e-loop of CP47 (PsbB) of Thermosynechococcus elongatus; source: cell-free expression (RTS100, 5Prime), purified on the SPR sensor surface via DNase E7; not shown: Im7 (immunity protein 7, with GGSG linker), N-terminal, kept
T3 sequence (Q8DIQ1 255-450): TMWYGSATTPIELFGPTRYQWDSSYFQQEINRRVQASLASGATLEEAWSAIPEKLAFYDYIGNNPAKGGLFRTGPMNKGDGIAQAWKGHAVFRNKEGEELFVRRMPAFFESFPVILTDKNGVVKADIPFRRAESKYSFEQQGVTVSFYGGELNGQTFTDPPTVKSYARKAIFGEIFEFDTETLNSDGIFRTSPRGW
The description is as above.

In test [3] the target is T2, PsbV. Description: SPR; Biacore3000, CM5 chip coated with DNase E7; extrinsic proteins as Im7 fusion proteins overexpressed in E. coli; who was immobilised is not told in the main text; details in the supplementary material.

A word on the Kd: it is the concentration at which binding is half-saturated.

B1: Im7-D1pep (C-terminal peptide of processed D1 fused to Im7) (domain or fragment, Thermosynechococcus elongatus, UniProt P0A444 332-344, looked up)
chain: HERNAHNFPLDLA
notes: C-terminal peptide of processed D1, D1 (PsbA1) of Thermosynechococcus elongatus, residues H332-A344; also called D1 peptide; the 13 C-terminal residues of mature D1; source: cell-free expression (RTS100, 5Prime), purified on the SPR sensor surface via DNase E7; not shown: Im7 (immunity protein 7, with GGSG linker), N-terminal, kept
As for B1, the equilibrium dissociation constant (Kd) in the test with CyanoP lay within 100 to 150 µM.

B2: Im7-mD1 (C-terminal D1 domain in its processed form fused to Im7) (domain or fragment)
chain: not shown
As for B2, the Kd with CyanoP was 74 µM.

B3: Im7-CP43 (e-loop of CP43 fused to Im7) (domain or fragment)
chain: not shown
notes: luminal e-loop of CP43 (PsbC) of Thermosynechococcus elongatus; source: cell-free expression (RTS100, 5Prime), purified on the SPR sensor surface via DNase E7; not shown: Im7 (immunity protein 7, with GGSG linker), N-terminal, kept
As to B3, the Kd is ~50 µM in the test with PsbO, 55 µM with CyanoP and 26 µM in the test with PsbV [1].

B4: Im7-D1a (D1 a-loop fused to Im7) (domain or fragment)
chain: not shown
notes: D1 a-loop, D1 (PsbA1) of Thermosynechococcus elongatus, residues A54-Q113; source: cell-free expression (RTS100, 5Prime), purified on the SPR sensor surface via DNase E7; not shown: Im7 (immunity protein 7, with GGSG linker), N-terminal, kept
Consider B4, for which the values for the Kd with PsbO and with CyanoP were 50 to 100 µM and 16.2 µM, respectively.

B5: Im7-D2 (C-terminal domain of D2 fused to Im7) (domain or fragment)
chain: not shown
notes: luminal C-terminal domain of D2 (PsbD) of Thermosynechococcus elongatus; source: cell-free expression (RTS100, 5Prime), purified on the SPR sensor surface via DNase E7; not shown: Im7 (immunity protein 7, with GGSG linker), N-terminal, kept
B5: the Kd with PsbO is ~50 µM; with CyanoP it was 5.2 µM.

B6: Im7-pD1 (C-terminal D1 domain with precursor peptide fused to Im7) (domain or fragment)
chain: not shown
As for B6, the Kd with CyanoP was 76 µM.

As for B7, the Kd in test [2] stood at 91 µM.

B8: Im7 fusion protein of PsbU (natural protein, Thermosynechococcus elongatus, UniProt Q9F1L5 31-134, looked up)
chain: ATASTEEELVNVVDEKLGTAYGEKIDLNNTNIAAFIQYRGLYPTLAKLIVKNAPYESVEDVLNIPGLTERQKQILRENLEHFTVTEVETALVEGGDRYNNGLYK
notes: PsbU of Thermosynechococcus elongatus, without signal peptide; PsbU is described only as an Im7 fusion protein; source: E. coli Overexpress C43, purified
Take B8: the Kd with PsbV [3] is 146 µM.
